Consider three molecules from patent US9676849B2, “Enhancement of transport of therapeutic molecules across the blood brain barrier” (Biogen Idec MA Inc., priority 2012, dated 2017).

Series [1] in a line: Circulating pharmacokinetics of FC5 containing molecules in rats. It is filed as in vivo. As to conditions: rat, intraperitoneal 3 mpk; for Beta-phase half life (h), assay format Fluorescence: AL680 labeled molecules, fluorescence from sera. The procedure:
To understand the exposure of the BBB endothelium to each of the FC5 containing antibodies the pharmacokinetics the molecules were determined in rats. Animals were dosed intraperitoneally at 3 mpk with either the FC5 Vhh N-terminally (FC5-Fc) or C-terminally (Fc-FC5) fused to a human Fc domain. Concentrations of FC5-Fc or Fc-FC5 in the plasma were determined at various time points by ELISA. The results were analyzed to determine the beta-phase half-lives of each construct (Table II).
Half-life was determined by ELISA detection of the human Fc from rat serum or with AL680 labeled molecules and the fluorescence determined from the sera. No difference was observed between molecules in which the half-life was determined by fluorescence versus ELISA. Molecules were injected intraperitoneal at 3 mpk.

The subject of series [2] is immortalized adult rat brain endothelial cells (SV-ARBEC). Kind of series: In vitro transport rate across BBB endothelial cell monolayer. It is filed as in vitro ADME. As to conditions: compared with control antibodies 12F6A, CRL2434 and C37H; FIG. 3. From the text:
We used an in vitro BBB endothelial cell layer to model in vivo cross BBB flux rates for each FC5 containing protein. The in vitro model uses a monolayer of immortalized adult rat brain endothelial cells (SV-ARBEC) in a monolayer assay system validated for tightness with small molecules (Garberg, P., Ball, M., Borg, N., Cecchelli, R., Fenart, L., Hurst, R. D., Lindmark, T., Mabondzo, A., Nilsson, J. E., Raub, T. J., Stanimirovic, D., Terasaki, T., Oberg, J. O., and Osterberg, T. (2005) Toxicol In Vitro 19(3), 299-334). The methods for the in vitro flux rate determinations are nearly identical to those described in (Caram-Salas, N., Boileau, E., Farrington, G. K., Garber, E., Brunette, E., Abulrob, A., and Stanimirovic, D. Methods in molecular biology 763, ed. 2010, 383-401).

In another series the target is T1, mu pain receptors (Rattus norvegicus, UniProt P33535).
T1 construct: from tissue; host or cells: rat brain (periaqueductal region), in vivo
T1 sequence (P33535 whole entry): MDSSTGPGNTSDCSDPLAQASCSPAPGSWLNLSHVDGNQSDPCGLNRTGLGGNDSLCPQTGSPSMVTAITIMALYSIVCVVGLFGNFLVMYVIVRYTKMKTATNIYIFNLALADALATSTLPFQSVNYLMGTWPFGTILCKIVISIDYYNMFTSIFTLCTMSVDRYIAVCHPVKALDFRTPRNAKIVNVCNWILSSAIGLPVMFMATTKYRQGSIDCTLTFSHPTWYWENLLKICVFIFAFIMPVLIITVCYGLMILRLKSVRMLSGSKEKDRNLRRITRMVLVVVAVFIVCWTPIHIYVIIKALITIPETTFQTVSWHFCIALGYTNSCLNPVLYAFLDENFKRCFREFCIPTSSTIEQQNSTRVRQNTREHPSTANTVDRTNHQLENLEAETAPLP
Put plainly: Hargreaves model of thermal pain, Dalargin alone or linked. As to conditions: for Fold potency compared to FC5-Dal in Hargreaves model: IV, based on molar ratio of Dalargin injected. It is filed as in vivo. From the text: The Hargreaves model measures increased sensitivity to thermal pain induced by injection of Freud's adjuvant in a paw. The thermal pain can be suppressed upon binding of a six amino acid peptide Dalargin to the mu pain receptors expressed in the peri-aquaductal portion of the brain. […] Thus intravenously injected Dalargin must be linked to a receptor mediated transporter to allow cross BBB transport and suppression of pain. To evaluate the transport of Dalargin mediated by FC5 containing molecules across the BBB the Hargreaves animal model was used to compare the potency of various molecular forms of FC5 Vhh linked to Dalargin. The negative control molecule for FC5-Dalargin was EG2-Dalargin and for FC5-Fc-Dalargin was Fc-FC5-Dalargin.
Prior to intravenous (IV) injection each molecule was initially tested by intracerebroventricular (ICV) injection as a positive control to insure all linked molecules are functionally active and able to induce pain suppression. Both negative control and positive test molecules would be expected to suppress pain upon ICV injection as the molecules are injected directly into the cerebral spinal fluid and are able to diffuse to and block the periacquiductal mu pain receptors. […] Next each Dalargin labeled molecule and corresponding Dalargin labeled control protein were evaluated for efficacy upon IV administration. Initially, the efficacy of FC5-Dal versus the control (EG2-Dal) was compared. […] It is interesting to note that three doses of FC5-Dal at 7.5 mg per kg (mpk) per dose as needed prior to observing the initial pain suppression.
Chronic pain suppression is expressed as the percentage of maximum possible effect (% MPE). The value is based on the area under the curve for pain suppressed animal relative to the contralateral control paw over the time frame of measurement. The efficacy of molecules injected either ICV or IV is shown as a percent of maximum possible effect (% MPE) in the Hargreaves model. […] Dose in mpk for intravenous (IV) dosing values are indicated as per injection followed by the number of injections.

For another series, the system named is SV-ARBEC. Put plainly: Fluorescent flow cytometry binding to SV40 transformed rat BBB endothelial cells. The conditions noted are these: SV40 transformed cell line vs primary cells. The procedure:
(§1) The binding affinity of each molecule was evaluated in separate Fluorescent Flow Cytometry assay using freshly isolated rat BBB endothelial cells, SV40 transformed rat BBB endothelial cells (Caram-Salas, N., Boileau, E., Farrington, G. K., Garber, E., Brunette, E., Abulrob, A., and Stanimirovic, D. Methods in molecular biology 763, ed. 2010, 383-401) and to Hek293 cells transiently transfected with the previously identified target TMEM30A.
On the technique in general: Flow cytometry measures light scatter and fluorescence of single cells or particles in a stream.

The subject of a further series is Primary rat BBB EC. Put plainly: Fluorescent flow cytometry binding to primary rat BBB endothelial cells. The conditions noted are these: read-out: Affinity (nM), Primary rat BBB EC. The procedure:
as §1

A value given as a limit tells only on which side of the number the result lay.

On to Fc-FC5, for which, in series [1], the “half-life when fused to a human Fc compared with FC5 Vhh alone” value was “significantly longer” and the “Beta-phase half life (h), assay format Fluorescence” value stood at 38.6 h. In addition, in series [2], the “rate of transport across in vitro SV40 rat BBB transformed endothelial cell line” value (“rate of transport across” for short) is listed as “increased rate of transport”. Moreover, the “Fold potency compared to FC5-Dal in Hargreaves model” value (“Fold potency compared to FC5-Dal” for short) with mu pain receptors is on record as less than 0.1 fold.

FC5-Fc: in series [1], the “half-life when fused to a human Fc compared with FC5 Vhh alone” value is recorded as “significantly longer” and the “Beta-phase half life (h), assay format Fluorescence” value is listed as 39.4 h. Further, in series [1] (ELISA detection of human Fc from rat serum), the “Beta-phase half life (h), assay format ELISA” value was found to be 35.7 h. The “fold weaker binding than to primary rat BBB endothelial cells” value in the series with SV-ARBEC was “about 7 fold”. In series [2], the “rate of transport across” value is given as “increased rate of transport”. Moreover, the “Fold potency compared to FC5-Dal” value with mu pain receptors is recorded as 80 fold. Besides, the “average % MPE after the first 0.5 h” value with mu pain receptors (rat, single IV dose 0.5 mpk) is 50 % MPE.

B1: FC5: llama single domain VHH antibody binding TMEM30A, SEQ ID NO: 10, with myc and His tags (protein)
VHH: EVQLQASGGGLVQAGGSLRLSCAASGFKITHYTMGWFRQAPGKEREFVSRITWGGDNTFYSNSVKGRFTISRDNAKNTVYLQMNSLKPEDTADYYCAAGSTSTATPLRVDYWGKGTQVTVSS
modifications: myc and His tags
For B1, the Kd in the series with Primary rat BBB EC is more than 2000 nM. Moreover, the “rate of transport across” value in series [2] is recorded as “increased rate of transport”. Besides, the “Fold potency compared to FC5-Dal” value with mu pain receptors is listed as 1 fold.
